Reference: the Human Domainome abundance scans (Beltran et al. 2025)
± gives the uncertainty stated by the source.

B1: Gamma-crystallin C, residues 4 to 79; numbered along this chain, P07315 (parent)
chain: ITFYEDRAFQGRSYETTTDCPNLQPYFSRCNSIRVESGCWMLYERPNYQGQQYLLRRGEYPDYQQWMGLSDSIRSC

Variants of: B1
Experiment: abundance fitness (aPCA) (normalised: wild type 0, dead -1); higher = more abundant; growth selection in yeast, the domain comes from the species named
Details: Homo sapiens
For I73E, the abundance fitness was -0.655 ± 0.2.
In the case of I73K, the abundance fitness is reported as -0.801 ± 0.25.
Variant I73H has an abundance fitness of -0.693 ± 0.29.
Variant I73C has an abundance fitness of 0.047 ± 0.091.
With I73M the abundance fitness was 0.106 ± 0.094.
With I73F the abundance fitness was -0.083 ± 0.12.
Work on I73R yielded an abundance fitness of -0.854 ± 0.1.
With I73T the abundance fitness was 0.053 ± 0.1.
I73P showed an abundance fitness of 0.071 ± 0.081.
Variant I73D has an abundance fitness of -0.861 ± 0.23.
In the case of I73Q, the abundance fitness is reported as -0.798 ± 0.26.
I73A gave an abundance fitness of 0.055 ± 0.053.
I73V gave an abundance fitness of 0.085 ± 0.089.
In the case of I73W, the abundance fitness is reported as 0.124 ± 0.12.
Work on I73Y yielded an abundance fitness of -0.207 ± 0.3.
I73L showed an abundance fitness of 0.025 ± 0.077.
In the case of I73S, the abundance fitness is reported as -0.39 ± 0.084.
M67Y gave an abundance fitness of -0.067 ± 0.096.
Variant M67F has an abundance fitness of -0.091 ± 0.093.
Variant M67D has an abundance fitness of -0.106 ± 0.15.
In the case of M67R, the abundance fitness is reported as -0.005 ± 0.072.
With M67G the abundance fitness was -0.113 ± 0.06.
Work on M67V yielded an abundance fitness of 0.008 ± 0.073.
M67T gave an abundance fitness of -0.018 ± 0.077.
M67Q gave an abundance fitness of -0.042 ± 0.15.
With M67A the abundance fitness was -0.03 ± 0.057.
For M67N, the abundance fitness was -0.065 ± 0.17.
With M67L the abundance fitness was -0.011 ± 0.053.
Variant M67C has an abundance fitness of -0.173 ± 0.12.
With M67S the abundance fitness was -0.057 ± 0.11.
Variant M67W has an abundance fitness of 0.044 ± 0.087.
In the case of M67H, the abundance fitness is reported as -0.01 ± 0.25.
In the case of M67P, the abundance fitness is reported as -0.057 ± 0.069.
Work on M67K yielded an abundance fitness of -0.043 ± 0.15.
For M67E, the abundance fitness was -0.131 ± 0.081.
Work on S70K yielded an abundance fitness of -0.114 ± 0.17.
In the case of S70H, the abundance fitness is reported as -0.181 ± 0.15.
For S70M, the abundance fitness was -0.132 ± 0.097.
In the case of S70R, the abundance fitness is reported as -0.064 ± 0.067.
Work on S70T yielded an abundance fitness of -0.072 ± 0.075.
S70I gave an abundance fitness of 0.09 ± 0.11.
For S70P, the abundance fitness was 0.082 ± 0.084.
Work on S70C yielded an abundance fitness of 0.101 ± 0.16.
In the case of S70G, the abundance fitness is reported as -0.007 ± 0.055.
In the case of S70A, the abundance fitness is reported as 0.02 ± 0.05.
For S70D, the abundance fitness was -0.074 ± 0.12.
In the case of S70Q, the abundance fitness is reported as -0.077 ± 0.15.
Work on S70V yielded an abundance fitness of 0.075 ± 0.048.
In the case of S70N, the abundance fitness is reported as -0.021 ± 0.11.
Work on S70F yielded an abundance fitness of -0.053 ± 0.079.
S70W gave an abundance fitness of 0.048 ± 0.068.
Variant S70L has an abundance fitness of -0.047 ± 0.049.
Variant S70Y has an abundance fitness of 0.047 ± 0.096.
C76E showed an abundance fitness of -0.795 ± 0.32.
Work on C76Q yielded an abundance fitness of -0.592 ± 0.15.
For C76H, the abundance fitness was -0.574 ± 0.092.
C76I gave an abundance fitness of 0.074 ± 0.083.
In the case of C76A, the abundance fitness is reported as 0.056 ± 0.078.
C76Y showed an abundance fitness of -0.719 ± 0.13.
For C76R, the abundance fitness was -0.904 ± 0.25.
With C76P the abundance fitness was -0.984 ± 0.18.
Variant C76T has an abundance fitness of -0.002 ± 0.15.
Variant C76S has an abundance fitness of 0.051 ± 0.063.
In the case of C76M, the abundance fitness is reported as -0.192 ± 0.14.
Work on C76G yielded an abundance fitness of 0.116 ± 0.065.
With C76D the abundance fitness was -0.834 ± 0.13.
C76V showed an abundance fitness of 0.061 ± 0.073.
Work on C76F yielded an abundance fitness of -0.539 ± 0.086.
Work on C76W yielded an abundance fitness of -0.545 ± 0.22.
With W66V the abundance fitness was 0.018 ± 0.077.
W66Y gave an abundance fitness of 0.069 ± 0.12.
For L69I, the abundance fitness was -0.23 ± 0.26.
For L69G, the abundance fitness was -0.028 ± 0.041.
L69Q showed an abundance fitness of 0.08 ± 0.12.
For L69W, the abundance fitness was 0.098 ± 0.081.
With L69N the abundance fitness was -0.045 ± 0.18.
For L69C, the abundance fitness was 0.07 ± 0.12.
Variant L69V has an abundance fitness of 0.02 ± 0.058.
L69R showed an abundance fitness of -0.021 ± 0.048.
With L69P the abundance fitness was -0.07 ± 0.12.
Work on L69F yielded an abundance fitness of 0.147 ± 0.12.
Variant L69H has an abundance fitness of -0.045 ± 0.099.
L69K gave an abundance fitness of -0.104 ± 0.091.
L69T showed an abundance fitness of 0.047 ± 0.085.
In the case of L69S, the abundance fitness is reported as -0.153 ± 0.076.
For L69Y, the abundance fitness was -0.001 ± 0.18.
For L69M, the abundance fitness was -0.163 ± 0.1.
With L69E the abundance fitness was 0.017 ± 0.075.
With G68V the abundance fitness was 0.007 ± 0.065.
G68P showed an abundance fitness of -0.02 ± 0.069.
G68C gave an abundance fitness of 0.117 ± 0.083.
In the case of G68L, the abundance fitness is reported as -0.027 ± 0.048.
For G68T, the abundance fitness was 0.068 ± 0.076.
G68S showed an abundance fitness of 0.014 ± 0.052.
Work on G68E yielded an abundance fitness of -0.062 ± 0.12.
G68A showed an abundance fitness of 0.003 ± 0.073.
Variant G68W has an abundance fitness of 0.003 ± 0.08.
Work on G68D yielded an abundance fitness of -0.042 ± 0.13.
With G68Y the abundance fitness was 0.097 ± 0.089.
With G68K the abundance fitness was 0.028 ± 0.088.
For G68Q, the abundance fitness was -0.018 ± 0.083.
For G68R, the abundance fitness was 0.079 ± 0.043.
G68N gave an abundance fitness of -0.053 ± 0.14.
With S72L the abundance fitness was -0.052 ± 0.072.
With S72Y the abundance fitness was 0.01 ± 0.11.
Variant S72G has an abundance fitness of 0.022 ± 0.054.
For S72I, the abundance fitness was 0.007 ± 0.17.
S72C showed an abundance fitness of -0.082 ± 0.13.
In the case of S72F, the abundance fitness is reported as 0.119 ± 0.084.
In the case of S72M, the abundance fitness is reported as 0.019 ± 0.11.
S72A gave an abundance fitness of -0.136 ± 0.081.
For S72T, the abundance fitness was -0.145 ± 0.088.
S72D showed an abundance fitness of -0.21 ± 0.3.
S72P gave an abundance fitness of -0.025 ± 0.14.
Variant S72K has an abundance fitness of 0.058 ± 0.13.
S72R showed an abundance fitness of 0.01 ± 0.07.
S72H showed an abundance fitness of -0.172 ± 0.17.
In the case of S72V, the abundance fitness is reported as -0.012 ± 0.077.
Variant S75V has an abundance fitness of -0.226 ± 0.053.
In the case of S75L, the abundance fitness is reported as 0.044 ± 0.068.
For S75C, the abundance fitness was 0.044 ± 0.12.
In the case of S75I, the abundance fitness is reported as -0.186 ± 0.15.
With S75H the abundance fitness was -0.88 ± 0.29.
For S75K, the abundance fitness was -0.59 ± 0.19.
S75E gave an abundance fitness of -0.793 ± 0.27.
Variant S75Q has an abundance fitness of -0.327 ± 0.21.
In the case of S75P, the abundance fitness is reported as -0.66 ± 0.12.
S75G gave an abundance fitness of -0.069 ± 0.062.
S75Y showed an abundance fitness of -0.599 ± 0.25.
S75A showed an abundance fitness of -0.054 ± 0.093.
Work on S75R yielded an abundance fitness of -0.479 ± 0.069.
Variant S75T has an abundance fitness of -0.828 ± 0.17.
S75W showed an abundance fitness of -0.875 ± 0.24.
Variant S75D has an abundance fitness of -0.836 ± 0.41.
Work on S75F yielded an abundance fitness of -0.979 ± 0.26.
With S75M the abundance fitness was -0.675 ± 0.13.
In the case of R74H, the abundance fitness is reported as -0.001 ± 0.11.
Variant R74T has an abundance fitness of 0.12 ± 0.082.
In the case of R74M, the abundance fitness is reported as 0.007 ± 0.082.
In the case of R74C, the abundance fitness is reported as 0.037 ± 0.088.
R74P showed an abundance fitness of -0.389 ± 0.099.
R74K showed an abundance fitness of -0.013 ± 0.12.
R74W gave an abundance fitness of 0.119 ± 0.059.
R74I showed an abundance fitness of 0.02 ± 0.076.
Variant R74V has an abundance fitness of 0.108 ± 0.053.
In the case of R74Q, the abundance fitness is reported as -0.001 ± 0.1.
R74Y showed an abundance fitness of 0.105 ± 0.14.
Work on R74D yielded an abundance fitness of 0.104 ± 0.15.
In the case of R74L, the abundance fitness is reported as 0.023 ± 0.049.
For R74G, the abundance fitness was 0.022 ± 0.044.
R74E gave an abundance fitness of -0.021 ± 0.066.
In the case of R74N, the abundance fitness is reported as 0.107 ± 0.14.
In the case of R74A, the abundance fitness is reported as 0.039 ± 0.05.
D71W showed an abundance fitness of -0.02 ± 0.14.
With D71P the abundance fitness was -0.135 ± 0.071.
With D71N the abundance fitness was -0.007 ± 0.12.
D71V showed an abundance fitness of -0.004 ± 0.059.
Variant D71S has an abundance fitness of -0.056 ± 0.055.
D71H showed an abundance fitness of -0.092 ± 0.1.
Variant D71T has an abundance fitness of -0.059 ± 0.12.
D71C gave an abundance fitness of -0.017 ± 0.11.
In the case of D71M, the abundance fitness is reported as -0.133 ± 0.075.
With D71R the abundance fitness was -0.011 ± 0.066.
With D71L the abundance fitness was 0.021 ± 0.068.
In the case of D71E, the abundance fitness is reported as 0.027 ± 0.086.
D71Y showed an abundance fitness of -0.027 ± 0.081.
Work on D71Q yielded an abundance fitness of -0.121 ± 0.14.
